Measured values as given in patent publication US20200270365A1.

Assays:
[1] = target: biotin-PCSK9-his (human) (UniProt Q8NBP7); test: competitive ELISA, one antibody coated, biotin-PCSK9-his + 50-fold competing antibody; competitor h011-3133-YTE
[2] = target: biotin-PCSK9-his (human) (UniProt Q8NBP7); test: competitive ELISA, one antibody coated, biotin-PCSK9-his + 50-fold competing antibody; competitor 21B12 (itself)

IR (%) [1]: 3.01%
IR (%) [2]: 97.8%
Substance: 21B12 (U.S. Pat. No. 8,030,457B2) (antibody)
